# According to publication PMC8299219 (Cell, 2021):
# Where a chain is given by its changes, count along the chain named.
# B1: C12A8 (antibody, V domains shown)
# VH: QVQLVQSGAEVKKPGASVKVSCKVSGYTLTELSMHWVRQAPGKGLEWMGGFDPEDGETIYAQKFQGRVTMTEDTSTDTAYMELSSLRSEDTAVYYCATVSWPNYYDGTLYYFDYWGQGTLVTVSS
# VL: DIQMTQSPSSLSASVGDRVTITCRASQGIRNDLGWYQQKPGKAPKRLIYAASSLQSGVPSRFRGSGSGTEFTLTISSLQPEDFATYYCLQHYSYPFTFGPGTKVDIK
# B2: C81H7 (antibody, V domains shown)
# VH: QVQLVESGGGVVQPGRSLRLSCAASGFTFSSYGMHWVRQAPGKGLEWVAVIWYDGSNKYYAESVKGRFTISRDNSKNTLYLQMNSLRAEDTAVYYCARPPSVVRHDAFDIWGQGTMVTVSS
# VL: SYELTQPPSVSVSPGQTARITCSGDALPKKYAYWYQQKSGQAPVLVIYEDSKRPSGIPERFSGSSSGTMATLTISGAQVEDEADYYCYSTDSSGNHGVFGGGTKLTVL
# B3: G32M4 (antibody, V domains shown)
# VH: QVQLVESGGGVVQPGRSLRLSCAASGFTFRSYAMHWVRQAPGKGLEWVAVISYDGSNKYYADSVKGRFTISRDNSKNTLYLQMNSLRAEDTAVYYCAKSYSGSYLAAFDIWGQGTMVTVSS
# VL: EIVLTQSPGTLSLSPGERATLSCRASQIFSSSYLAWYQQKPGQAPRLLIYGASSRATGIPDRFSGSGSGTDFTLTISRLEPEDFAVYYCQQYGSSITFGQGTRLEIK
# B4: C30A5 (antibody, V domains shown)
# VH: B3 VH with R30S, S31T, M83L, Y100G, S103H, L105F, A107P, I110Y, M116L
# VL: not shown
# B5: C83B8 (antibody, V domains shown)
# VH: QVQLVQSGAEVKKPGSSVKVSCKASGGTFSSYAISWVRQAPGQGLEWMGGIIPIFGTANYAQKFQGRVTITADESTSTAYMELSSLKSEDTAVYYCASTSYYDSSGYYLDYWGQGTLVTVSS
# VL: EIVLTQSPATLSLSPGERATLSCRASQSVSSFLAWYQQKPGQAPRLLIYDASNRATGIPARFSGSGSGTDFTLTISSLEPEDFAVYYCQQRSNWPPKITFGQGTRLEIK
# B6: C102A1 (antibody, V domains shown)
# VH: B5 VH with K23E, V68L, Y80F, K87R, S98R, S100Y, Y108S, L109H
# VL: B5 VL with V29L, S92T, K97R
# B7: C12B2 (antibody, V domains shown)
# VH: B5 VH with K87R, S98R, T99M, S100D
# VL: B5 VL with S31N, Q89L, K97R, I98L, Q102G, R105K, L106V
# B8: C163D1 (antibody, V domains shown)
# VH: B5 VH with K87R, S98R, T99V, Y101G, Y108S, L109P
# VL: B5 VL with F32Y, K97R, I98L, Q102G, R105K, L106V
# B9: C83A10 (antibody, V domains shown)
# VH: B5 VH with N59K, M81L, K87R, S98R, T99V, S100G, Y101P, L109Y
# VL: B5 VL with F32Y, K97M, I98Y, R105K
# B10: C81D9 (antibody, V domains shown)
# VH: QVQLVESGGGVVQPGRSLRLSCAASGFTFSSYAMHWVRQAPGKGLEWVAVISYDGSNKYYADSVRGRFTISRDNSKNTLYLQMNSLRAEDTAVYYCARAWGGSYRGGLDYWGQGTLVTVSS
# VL: DIQMTQSPSSLSASVGYRVTITCRASQSISSWLAWYQQKPGKAPKLLIYKASSLESGVPSRFSGSGSGTEFTLTISSLQPDDFATYYCQQYNSYWTFGQGTKVEIK
# B11: G32M5 (antibody, V domains shown)
# VH: EVQLLESGGGLVQPGGSLRLSCAASGFTFSSYAMSWVRQAPGKGLEWVSGISASGGSTYYADSVKGRFTISRDNSKNTLYLQMNSLRAEDTAVYYCAKDGGPYSKGPYHYYGMDVWGQGTTVTVSS
# VL: QSVLTQPPSVSAAPGQKVTISCSGSSSNIGNNYVSWYQQLPGTAPKLLIYDNNKRPSGIPDRFSGSKSGTSATLGITGLQTGDEADYYCGTWDSSLSAYVFGTGTKVTVL
# B12: C163E6 (antibody, V domains shown)
# VH: QVQLVESGGGVVQPGRSLRLSCAASGFTFNTYAVYWVRQAPGKGLEWVAVISYDGINKYYADSVKGRFTISRDNSKNTLYLQMNSLRPEDTAVYYCARVKSGSYKGCFDYWGQGTLVTVSS
# VL: not shown
# B13: C81E4 (antibody, V domains shown)
# VH: QVQLVESGGGVVQPGRSLRLSCEASGFTFSNYAMHWVRQAPGKGLEWVAVISYDGSNKYYADSVKGRFTISRDNSKNTLYLQMNSLRAEDTAVYYCASCGITMVQGAHPDAFDIWGQGTMVTVSS
# VL: SYELTQPPSVSVAPGKTARITCGGNNIGTKSVHWYQQKPGQAPVLVVYDDSDRPSGIPERFSGSNSGNTATLTISRVEAGDEADYYCQVWDRSSDHVLFGGGTKLTVL
# B14: C41N6 (antibody, V domains shown)
# VH: QVQLVESGGGVVQPGGSLRLSCAASGFTFSSYGMHWVRQAPGKGLEWVAFIRYDGSNNYYADSVKGRFTISRHNSKNTLYLQMNSLRAEDTAVYYCAKVTITIFGVVIYGMDVWGQGTTVTVSS
# VL: not shown
# B15: C83B5 (antibody, V domains shown)
# VH: EVQLVQSGAEVKKPGESLRISCKGSGYSFTSYWISWVRQMPGKGLEWMGRIDPSDSYTNYSPSFQGHVTISADKSISTAYLQWSSLKASDTAMYYCARQNYYDSSGHPDAFDIWGQGTMVTVSS
# VL: not shown
# B16: C12D8 (antibody, V domains shown)
# VH: EVQLVESGGGLVQPGGSLRLSCAASGFTFSSYWMSWVRQAPGKGLEWVANIKQDGSEKYYVDSVKGRFTISRDNAKNSLYLQMNSLRAEDTAVYYCARDDGLREPFDYWGQGTLVTVSS
# VL: not shown
# B17: C63D4 (antibody, V domains shown)
# VH: EVQLVESGGGLVQPGGSLRLSCAASGFTFSTYEMNWVRQAPGKGLEWVSYISSSGSTISYADSVKGRFTISRDNAKNSLYLQMNSLRAEDTAVYYCARDSPHYDYIWGSYRLRGAFDIWGQGTMVTVSS
# VL: QSALTQPPSASGSPGQSVTISCTGTSSDVGGYNYVSWYQQHPGKAPKLMIYEVSKRPSGVPDRFSGSKSGNTASLTVSGLQAEDEADYYCSSYTGSNTLYVFGTGTKVTVL
# B18: C81E2 (antibody, V domains shown)
# VH: not shown
# VL: DIQMTQSPSSLSASVGDRVTITCRASQGISNYLAWYQQKPGKVPKLLIYAASTLQSGVPSRFSGSGSGTDFTLTISSLQPEDVATYYCQKYNSASPLTFGGGTKVEIK
# B19: C18D5 (antibody, V domains shown)
# VH: QVQLVQSGAEVKTPGASVKVSCKASGFTFTNYDLNWVRQAPGQGLEWMGWMNPKSGDTRSAQRFQGRVTMTRDTSISTAYMEMNTLRSEDTAVYYCARGRGDYSDDDFPALYLWGQGTLVTVSS
# VL: not shown
# B20: C107A2 (antibody, V domains shown)
# VH: EVQLVESGGGLVQPGGSLRLSCAASEFTVNNNYMSWVRQAPGKGLEWVSIIYSGGSTYYADSVKGRFTISRDNSKNTLYLQMNSLRAEDTAVYYCARNHITMVRGVIKYQDYWGQGTLVTVSS
# VL: not shown
# B21: C12I9 (antibody, V domains shown)
# VH: QVQLVQSGAEVKKPGASVKVSCKASGYTFTGYYMHWVRQDPGQGLEWMGWINPNSGVTNYAQKFQGWVTMTRDTSISTAYMELSRLKSDDTAVYYCAREVGAVAGTFYYGLDVWGQGTTVTVSS
# VL: QSALTQPRSVSGSPEQSVAISCTGTSSDVGGNNYVSWYQQHPGKAPKLMIYDVSKRPSGVPDRFSGSKSGNTASLTISGLQAEDEADYYCCSYAGSYTFGVVFGGGTKLTVL
# B22: C81G1 (antibody, V domains shown)
# VH: QVQLVQSGAEVKKPGSSVKVSCKASGGTFSSYGITWVRQAPGQGLEWMGGIIPIFGTANYAQKFQGRVTITADESTSTAYMDLSSLRSEDTAVYYCAILGDDYNDVDYWGQGTLVTVSS
# VL: not shown
# B23: C163E11 (antibody, V domains shown)
# VH: QVQLVESGGGVVQPGRSLRLSCAASGFTFSIYAIHWVRQAPGKGLEWVAVVSYDGSNKYYADSVRGRFTISRDNSKNTLYLQMNSLRADDTAVYYCARDSAGGYSYLFDYWGQGTLVTVSS
# VL: not shown
# B24: G32R10 (antibody, V domains shown)
# VH: EVQLLESGGGLVQPGGSLRLSCAASGFTFSRYAMSWVRQAPGKGLEWVSAISGSGGSTYYSDSVEGRFTISRDNSKNTLYVQMNSLRAEDTAVYYCAKDAGFIPLYYFDYWGQGTLVTVSS
# VL: EIVMTQSPVTLSVSPGERATLSCRASQSVSSNLAWYQQKPGQAPRLLIYGASTRATGIPARFSGSGSGTEFTLIISSLQSEDFAVYNCQQYNNWPWTFGQGTKVEIK
# B25: C30A11 (antibody, V domains shown)
# VH: QVQLVQSGAEVKKPGASVKVSCKASGYTFTGYYIHWVRQAPGQGLEWMGWINPNSGVTNYAQKFQGWVTMTRDTSISTAYMELSRLKSDDTAVYYCAREMQQLEGYYYYAMDVWGQGTTVTVSS
# VL: not shown
# B26: C882C12 (antibody, V domains shown)
# VH: QVQLVQSGAEVKKPGASVKVSCKASGYTFTGYYMHWVRQAPGQGLEWMGWINPNSDVTNYAQKFQGWVTMTRDTSISTAYMELSRLRSDDTAVYYCAREIPSSGYYSGGLDYWGQGTLVTVSS
# VL: QSALTQPRSVSGSPGQSVTISCTGTSSDVGGYNYVSWYQQYPGKAPKLMIYDVSKRPSGVPDRFSGSKSGNTASLTISGLQAEDEADYYCCSYAGTYTGVFGGGTKLTVL
# B27: C107A1 (antibody, V domains shown)
# VH: QVQLVESGGGVVQPGRSLRLSCAASGFTFSSYGMHWVRQAPGKGLEWVAVISYDGSNKYYADSVKGRFTISRDNSKNTLYLQMNSLRAEDTAMYYCAKDGSGSYSWFDPWGQGTLVTVSS
# VL: EIVMTQSPATLSVSPGERATLSCRASQSVSSNLAWYQQKPGQAPRLLIYGASTRATGIPARFGGSGSGTEFTLTISSLQSEDFAVYYCQQYNNGFTFGPGTKVDIK
# Molecular target: SARS-CoV-2 S ectodomain trimer, prefusion-stabilized, 2P variant (Wrapp et al., 2020) (SARS-CoV-2, Wuhan-Hu-1, UniProt P0DTC2, stabilised)
row,Binder,binding result
1,B1,binds
2,B2,binds
3,B3,binds
4,B4,binds
5,B5,binds
6,B6,binds
7,B7,binds
8,B8,binds
9,B9,binds
10,B10,binds
11,B11,binds
12,B12,binds
13,B13,binds
14,B14,binds
15,B15,binds
16,B16,binds
17,B17,binds
18,B18,binds
19,B19,binds
20,B20,binds
21,B21,binds
22,B22,binds
23,B23,binds
24,B24,binds
25,B25,binds
26,B26,binds
27,B27,binds
